Data taken from the supplement of paper PMC9170038.

Tested on: K4 kissing-loop RNA reporter
Test: apparent KD of K4 kissing-loop reporter; higher = weaker reporter binding
Details: Eterna round: R107
Protocol: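 RNA-MaP round R107: designed RNA switches with theophylline, tryptophan, arginine or FMN aptamers are transcribed on-chip within common flanks. They are titrated with a labelled K4 kissing-loop RNA reporter in RNA-MaP buffer (100 mM Tris pH 7.5, 80 mM KCl, 4 mM MgCl2), without ligand or with the indicated ligand. Median apparent KD per design.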

[1] = input ligand: theophylline 20 uM
[2] = input ligand: tryptophan 2.4 mM
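Further: bound reporter read as fluorescence of individual clusters on recovered sequencing chips by microscopy, with normalized cluster intensities fitted with a binding model.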

Sequence | apparent KD of K4 kissing-loop reporter (input ligand: FMN 200 uM) | apparent KD of K4 kissing-loop reporter (input ligand: arginine 13.2 mM) | apparent KD of K4 kissing-loop reporter (input ligand: none) | apparent KD of K4 kissing-loop reporter [1] | apparent KD of K4 kissing-loop reporter [2]
GAAUGAAAUAUCUGGCCCUAUCAGAAUUGGAAGGAUAUGACGGUCAUCAGAAGGUCCAACUCGUAGUGAUGUUGCGGGUUUUAAA [theeternabot_exclusion_KL_FMN_A_21] | 91.2 nM | 46.3 nM | 41.4 nM | 42.8 nM | 36.2 nM
GCAGGACGAGGAGGAGGAUGAAUUACUGAAGGAGCGCAUAUUUUUGCAGGUAGGUCGCGGUAAAGAAGUAUAGUGAUGUUAUAUA [SSArgA.L] | 482 nM | 476 nM | 470 nM | 406 nM | 408 nM
UACCUGCUGUCAGGAUAUGAGUGCAGUGAUGUUGCACUCAACGUAACCAUCUUGAAAUACAAACACUCAGAAGGGACGCACGAAG [Isattema] | 183 nM | 95.9 nM | 140 nM | 167 nM | 191 nM
CGCAGUGAUGUUGCUAUUAUUCUUGGUUAACGAGGACCGGUACGGCCGCCACUCGGUUUCUAUCUAAUCCAGUGUUUUUUUGAGU [#24 K4 Tryptophan A Exclusion] | 425 nM | 506 nM | 556 nM | 573 nM | 246 nM
UCGUCUGUGUGAGGAUAUCCAAGCGAGCUGCGUAAAGGCGCGGCGUUUGGAGUGAUGUUCCAGGCAGGAGAAGGCGCACGGGCUU [Maleisar] | 231 nM | 296 nM | 245 nM | 470 nM | 292 nM
CCAUCGCUAUUCGAUACCAGUCAGGAGGUCUGUGACCUCCUAAUGGAGUGAUGUUCCUUAGACCCUUGGCAGCGAAUAGUGAUGG [#02 K4 Theophylline B Same State] | 203 nM | 196 nM | 221 nM | 141 nM | 202 nM
CCUGAUCCUAGUGAUGUUAGGUCCAACGGCCGAGGACCGGUACGGCCGCCACUCGUCAAUUGGAAACAGCCCACGGGCACCGGGU [theeternabot_sameState_KL_Trp_A_19] | 825 nM | 502 nM | 906 nM | 814 nM | 783 nM
AAUGUACAGGGAAGGAGCGUAGUCCAGUGAUGUUGGAAUUAAAUUCCUGUGAUGUUGGUUAUACAGGUAGGUCGCCCUAAAGUGC [KL-XARG-B21] | 112 nM | 92.2 nM | 108 nM | 118 nM | 93.3 nM
UGUGUUUACCUGACUCAGUGAUGUUGAGAAGGAGCGUGCAAACGCACAGGUAGGUCGCUCAACCUAAAUUCAGGUGAGCACUAAA | 568 nM | 380 nM | 453 nM | 423 nM | 406 nM
CCCAAAAUAUGCAGUGAUGUUGCAACCGAUACCAGUAUCGAAAGAUACCCUUGGCAGCGGAAAACCGCUACGUAAUUUAAAAGGG [Ex Theophylline A K4 17] | 308 nM | 318 nM | 311 nM | 603 nM | 254 nM
GUUAUAUAAAUAAGAAAUAAAAUAAGGGAAGGAGCGCCGAGAAAGGCAGGUAGGUCGCCCAGUGAUGUUGGGAUUAAUUAAUUAG | 45 nM | 33.7 nM | 39.3 nM | 43.9 nM | 37.1 nM
CGAAGAGAGUGAUGUUCUCUAGGCAAAAGAAAGGAUAUAAUGUUUGUUAGAAGGUUCGGAAAAUGGAACGUCGGCCCGUACAACC [theeternabot_exclusion_KL_FMN_A_18] | 151 nM | 129 nM | 139 nM | 127 nM | 121 nM
AAUUUAUUAACUGAUACCAGACUUAAUGAAUUGUAAAUUACUAGUGAUGUUAGUGAAUCUGUCCCUUGGCAGCAGUAUUUAUUAA [JR_ExcTheophyB_Sub010] | 144 nM | 209 nM | 173 nM | 208 nM | 124 nM
GCGUUCAUGGCAGGAUAUAGGUAAAGGAGUGAUGUUCCUUAUGUUGCAUUUACUUAAUCCAACUCCCUAGAAGGGCCAUGAACGC | 123 nM | 140 nM | 151 nM | 139 nM | 146 nM
GUAUCAGUGAUGUUGAUAGGCGAGCGGGAUACCAGCCAAGACUCAGGCCCUUGGCAGCCCACAUAUCCCACGUAGAUAGUAGCUC [Same State - Theophylline A (Freestyle 16)] | 137 nM | 105 nM | 128 nM | 139 nM | 123 nM
UGUACCGAGGCAGGAUAUGUCGUCGAAAGACGAAAUGGAGUGAUGUUCCUUAAACUGCGAAAGCAGACAGAAGGGUCUUGGUACU [FmnBS 29 G10+U76] | 132 nM | 178 nM | 181 nM | 167 nM | 171 nM
GUAUCGCUAGGAGGAUAUUUCAAUUCGCCUAUAAAAGGUGAUACGGAGUGAUGUUCCGAUUUACGGAAAGAAGGCCUAGUGAUAC [FMN B 9] | 137 nM | 259 nM | 282 nM | 262 nM | 273 nM
CCCUCACGAGUGAUGUUCGUAGGGUACAGUCAGGAUAUCAUGCGGUUGAGAAGGGACAGAGAAGGCGGCCACGGGUUGCUUAUCU [Ussoat] | 215 nM | 258 nM | 342 nM | 388 nM | 308 nM
GAUUUAGAGGCGGCCGCCACUAGUGAUGUUAGUGAUGUUUGAUACUGAAUAUAUCGGCGUGUAGAUAGGACCGGGCCAGAUGGAG [zwqqmullin] | 221 nM | 179 nM | 218 nM | 211 nM | 203 nM
AAACAUUGGUCUGAUACCAGUUAGACCGAUAAGGUCAAAACUGGAGUGAUGUUCCCAAAUAACCCUUGGCAGCAGACCGAUGAAA [MAT - Same State Theophlline B - Mod of Eli - D10] | 147 nM | 66 nM | 212 nM | 185 nM | 231 nM
GUGCAGUGAUGUUGCACGAGGAAAGACGAUACCAGCCGUAAAUAAGGCCCUUGGCAGCGUAGGCUAGCAUAAAGUACGCUAGUCC [Enarines] | 110 nM | 105 nM | 109 nM | 101 nM | 88.4 nM
GGCCGGUUGAAAGGCCGGCCAGAAACCGAAGGAGCGCGAAGAAACGCAGGUAGGUCGCGGAAAACAUGACCAGUGAUGUUGGUCG | 152 nM | 173 nM | 154 nM | 152 nM | 144 nM

Sequence | apparent KD of K4 kissing-loop reporter (input ligand: FMN 200 uM) | apparent KD of K4 kissing-loop reporter (input ligand: arginine 13.2 mM) | apparent KD of K4 kissing-loop reporter (input ligand: none) | apparent KD of K4 kissing-loop reporter [1] | apparent KD of K4 kissing-loop reporter [2]
CAAAUAUGCGGUAGGUUCAAGCGCUGGGAAGGAGCGCAGAUGACUGCAGGUAGGUCGCCCAGUGAUGUUGGGCUUUCCACCUAUU [Edbeaan] | 123 nM | 124 nM | 132 nM | 146 nM | 121 nM
UGCACGGGCUCGGCCGCCACUCCAGCGGGUCGCAAGGUCCGCUACUGAGUGAUGUUCGGUUGGAGGAGGACCGGGAGCCCGUGCG [#2 Exclusion - Tryptophan B Attempt #31 (HarryS)] | 146 nM | 114 nM | 133 nM | 139 nM | 126 nM
GCCGUAGAUUGAAGGAGCGGCACCCACGGCUCUAACACCUAAGUGAUGUUUAGGUAGUGGUGCCAGGUAGGUCGCAAUCUACGGC | 144 nM | 153 nM | 124 nM | 133 nM | 131 nM
AAUAAAAUCACGGCCGCCACUGAUGCUAAUAUUAGCAGUGAUGUUGCUAUGUAUAUUUUAUUUAACAGGACCGGGUGAAUAUUUA [JR_ExcTryptoB_Sub014] | 225 nM | 184 nM | 228 nM | 212 nM | 133 nM
UGUCAUUGGUCGGCCGCCACUAGGACCGGGUAUAACCUAGUGAUGUUAGUAAAUACGGCCGCCACUAGGACCGGGACCGAUGACU [KL-SSTryp-B18 #DoubleAptamer] | 415 nM | 296 nM | 583 nM | 471 nM | 102 nM
UGGACGUUAUACAAUAAGUAUAACUGGGAUACCAGUGACGAAAGUCACCCUUGGCAGCUCAACUGCCAGUGAUGUUGGUAGUCCA [Astros-Eli-mod#5] | 273 nM | 116 nM | 200 nM | 235 nM | 161 nM
AAGGUAUCACCAACUUGCAACAAAGGUGAUACCAGCAUCGAAAGAUGCCCUUGGCAGCACCAACUUGCAGUGAUGUUGCAAGUAA [(T)'-(H)'-(T1)-(T2)-(H1)-(H2)_Design10] | 170 nM | 161 nM | 159 nM | 186 nM | 170 nM
UGACUGGACUGAAGGAGCGGGAAACUCCUAGUGAUGUUAGGAAUACGAGACAAAGUCUCGACCCAGGUAGGUCGCAGUCUAGUCU [ArgBS 17 #SwitchBubble #StaticStem] | 121 nM | 93.3 nM | 108 nM | 116 nM | 119 nM
AACUGUCAAGGACAACAUUACUGAGGUGAUACCAGCAUCGAAAGAUGCCCUUGGCAGCACUAACUUGCAGUGAUGUUGCAAGUAA [BrourdMod 2 - Jieux - Exclusion - Theophylline A] | 211 nM | 173 nM | 193 nM | 197 nM | 206 nM
AAUCGCAGUGAUGUUGCGAUUCCGUUGAGGGAGGAUAUUGGUAAUACAAGAAGGUUCGGUUACGGGAGAUGUUAGUAAUAGGGCC [Exclusion FMN A GF21] | 46.2 nM | 41.3 nM | 61.8 nM |  | 85.2 nM
AAAUUUAAUAUAUUUAAUUAAUUAUGUGAUACCAGACAUUUAUAAGUCCCUUGGCAGCACUUUGCAGUGAUGUUGCAUAUAAUAA [JR_SSTheophyA_Sub013] | 89 nM | 185 nM | 121 nM | 157 nM | 99.2 nM
UGUAAUGAGUGAUGUUCAUGUAGUAAGGAUACCAGUAAUUCAAAAUGCCCUUGGCAGCUUAGUUCUAUCUAUAGUUGGGUAGUGG [Theophilline A V4 (+5U)] | 162 nM | 209 nM | 205 nM | 206 nM | 123 nM
UGUUUUUUUUUGAUGUUUGUUGUAAAAUGGCAGGAUAUCGUAGAGGCGAGAAGGGCUUUUAUGCGUUAUGAGUGAUGUUUGUAGG [vevvmullin] | 418 nM | 252 nM | 381 nM | 269 nM | 284 nM
CCAUUCUGUUACGAUACCAGUCAAAUAUAUUUGAUCAAUACCCUCGCCGAGUGAUGUUCGGACCCUUGGCAGCGUCUGGGACAGG [ccdfmullin] | 537 nM | 561 nM | 710 nM | 544 nM | 596 nM
AAAAUUGCGGUUUUAAGAUCUUUUUGCUUACGAGGACCGGUACGGCCGCCACUCGAGUCAAGUGAUGUUUGAUUUUCUAUUAUUA [JR_ExcTryptoA_Sub015] | 92.4 nM | 179 nM | 136 nM | 189 nM | 71.6 nM
GCGCGGCUCAGUGAUGUUGAGCCUCGGAAACGAGGACCGGUACGGCCGCCACUCGUCCGCGCAGCUGAGGCAAAAGCCUCGGCAA [Omei KL Tryp A SS B v1] | 284 nM | 276 nM | 319 nM | 334 nM | 261 nM
UGACUGGACUGAAGGAGCGCUAAACUCCUAGUGAUGUUAGGAAAACGAGACAAAGUCUCGAGGCAGGUAGGUCGCAGUCUAGUCU [ArgBS 18 #SwitchBubble #StaticStem] | 123 nM | 120 nM | 136 nM | 128 nM | 114 nM
AUUCGCUCCACUGAUACCAGUCAUCGAGCAAGAUGCUAAGCCAGUGAUGUUGGCAUGAAUGACCCUUGGCAGCAGUACACUAAGG [Theo B SS t7] | 65.4 nM | 106 nM | 75.6 nM | 113 nM | 60 nM
AUCUAUGAGCGAGGAUAUGCAUGACGCGAGUGAUGUUCGCGAUGUGGGCGUGAUUAGUAAUAUGAAGCAGAAGGCGCACUCAUGA [Exclusion - FMW B / A] | 216 nM | 111 nM | 153 nM | 116 nM | 129 nM
UCCUUAUCGCGGUCAUAAAGCCUAUAAAACAAGGAUAUCUCAUCAGAGAGAAGGUGUGAGUGAUGUUCAAAGGCCACCACGGGUU [theeternabot_sameState_KL_FMN_A_47] | 654 nM | 724 nM | 840 nM | 453 nM | 818 nM
AAGUCAUAGGCAGGAUAUGCAUUGUAGUAAGGCAAUAUAUACGUAUAGAGUGAUGUUUUGUACCAGGCAGAAGGGCUACAUCAGU [FMN B Excl V11 (+G)] | 826 nM | 367 nM | 645 nM | 868 nM | 492 nM
